31 variants from the RNAGym collection of RNA variant scans (doi:10.1021/acssynbio.7b00057) can be followed below.

B1: Pistol ribozyme (parent)
chain: GGGUCGUUGUUCCAUAAUCGCGUGGAUAUGGCACGCAAGUUUCUACCGGGCACCGUAAAUGUCCGACUGGAGCCGUUCGGGCGGCUAUAAACAGACCUCAGGCCCGAAGCGUGGCGGCACCUGCCGCCGGUGGUAAAAAAGAUCGGAAGAGCACACGUCU

The data set covers variants of B1. As to the kind of experiment: aptazyme ON/OFF ratio, guanine; higher = stronger switching; co-transcriptional cleavage with and without guanine.
For the variant GGGUCGAGAACUUAUAAUCGCGUGGAUAUGGCACGCAAGUUUCUACCGGGCACCGUAAAUGUCCGACUGGAGCCGUUCGGGCGGCUAUAAACAGACCUCAGGCCCGAAGCGUGGCGGCACCUGCCGCCGGUGGUAAAAAAGAUCGGAAGAGCACACGUCU [U7A U8G G9A U10A U11C C12U C13U], the “aptazyme ON/OFF ratio” value was determined as 1.26.
As to GGGUCGCAGAACGAUAAUCGCGUGGAUAUGGCACGCAAGUUUCUACCGGGCACCGUAAAUGUCCGACUGGAGCCGUUCGGGCGGCUAUAAACAGACCUCAGGCCCGAAGCGUGGCGGCACCUGCCGCCGGUGGUAAAAAAGAUCGGAAGAGCACACGUCU [U7C U8A U10A U11A C13G], the “aptazyme ON/OFF ratio” value was 1.19.
Under GGGUCGUUUGGAUAUAAUCGCGUGGAUAUGGCACGCAAGUUUCUACCGGGCACCGUAAAUGUCCGACUGGAGCCGUUCGGGCGGCUAUAAACAGACCUCAGGCCCGAAGCGUGGCGGCACCUGCCGCCGGUGGUAAAAAAGAUCGGAAGAGCACACGUCU [G9U U10G U11G C12A C13U] stands 1.38.
Under GGGUCGAUUCGUUAUAAUCGCGUGGAUAUGGCACGCAAGUUUCUACCGGGCACCGUAAAUGUCCGACUGGAGCCGUUCGGGCGGCUAUAAACAGACCUCAGGCCCGAAGCGUGGCGGCACCUGCCGCCGGUGGUAAAAAAGAUCGGAAGAGCACACGUCU [U7A G9U U10C U11G C12U C13U] stands 1.27; under GGGUCGCCUCUGAAUAAUCGCGUGGAUAUGGCACGCAAGUUUCUACCGGGCACCGUAAAUGUCCGACUGGAGCCGUUCGGGCGGCUAUAAACAGACCUCAGGCCCGAAGCGUGGCGGCACCUGCCGCCGGUGGUAAAAAAGAUCGGAAGAGCACACGUCU [U7C U8C G9U U10C C12G C13A], 1.11.
Consider GGGUCGCGCAUUAAUAAUCGCGUGGAUAUGGCACGCAAGUUUCUACCGGGCACCGUAAAUGUCCGACUGGAGCCGUUCGGGCGGCUAUAAACAGACCUCAGGCCCGAAGCGUGGCGGCACCUGCCGCCGGUGGUAAAAAAGAUCGGAAGAGCACACGUCU [U7C U8G G9C U10A C12U C13A], for which the “aptazyme ON/OFF ratio” value amounted to 1.21.
In the case of GGGUCGGAGAAGGAUAAUCGCGUGGAUAUGGCACGCAAGUUUCUACCGGGCACCGUAAAUGUCCGACUGGAGCCGUUCGGGCGGCUAUAAACAGACCUCAGGCCCGAAGCGUGGCGGCACCUGCCGCCGGUGGUAAAAAAGAUCGGAAGAGCACACGUCU [U7G U8A U10A U11A C12G C13G], the “aptazyme ON/OFF ratio” value stood at 1.2.
Turning to GGGUCGGUCGCCAAUAAUCGCGUGGAUAUGGCACGCAAGUUUCUACCGGGCACCGUAAAUGUCCGACUGGAGCCGUUCGGGCGGCUAUAAACAGACCUCAGGCCCGAAGCGUGGCGGCACCUGCCGCCGGUGGUAAAAAAGAUCGGAAGAGCACACGUCU [U7G G9C U10G U11C C13A], the “aptazyme ON/OFF ratio” value is 1.24.
With GGGUCGAGAGGGGAUAAUCGCGUGGAUAUGGCACGCAAGUUUCUACCGGGCACCGUAAAUGUCCGACUGGAGCCGUUCGGGCGGCUAUAAACAGACCUCAGGCCCGAAGCGUGGCGGCACCUGCCGCCGGUGGUAAAAAAGAUCGGAAGAGCACACGUCU [U7A U8G G9A U10G U11G C12G C13G], the “aptazyme ON/OFF ratio” value was determined as 1.68.
Under GGGUCGUAAGGGCAUAAUCGCGUGGAUAUGGCACGCAAGUUUCUACCGGGCACCGUAAAUGUCCGACUGGAGCCGUUCGGGCGGCUAUAAACAGACCUCAGGCCCGAAGCGUGGCGGCACCUGCCGCCGGUGGUAAAAAAGAUCGGAAGAGCACACGUCU [U8A G9A U10G U11G C12G] stands 1.26.
The same measure for GGGUCGCAUGAGUAUAAUCGCGUGGAUAUGGCACGCAAGUUUCUACCGGGCACCGUAAAUGUCCGACUGGAGCCGUUCGGGCGGCUAUAAACAGACCUCAGGCCCGAAGCGUGGCGGCACCUGCCGCCGGUGGUAAAAAAGAUCGGAAGAGCACACGUCU [U7C U8A G9U U10G U11A C12G C13U]: 1.2; for GGGUCGAACGCCAAUAAUCGCGUGGAUAUGGCACGCAAGUUUCUACCGGGCACCGUAAAUGUCCGACUGGAGCCGUUCGGGCGGCUAUAAACAGACCUCAGGCCCGAAGCGUGGCGGCACCUGCCGCCGGUGGUAAAAAAGAUCGGAAGAGCACACGUCU [U7A U8A G9C U10G U11C C13A]: 1.09; for GGGUCGAAUUGGAAUAAUCGCGUGGAUAUGGCACGCAAGUUUCUACCGGGCACCGUAAAUGUCCGACUGGAGCCGUUCGGGCGGCUAUAAACAGACCUCAGGCCCGAAGCGUGGCGGCACCUGCCGCCGGUGGUAAAAAAGAUCGGAAGAGCACACGUCU [U7A U8A G9U U11G C12G C13A]: 1.22.
The same measure for GGGUCGAGAGCAGAUAAUCGCGUGGAUAUGGCACGCAAGUUUCUACCGGGCACCGUAAAUGUCCGACUGGAGCCGUUCGGGCGGCUAUAAACAGACCUCAGGCCCGAAGCGUGGCGGCACCUGCCGCCGGUGGUAAAAAAGAUCGGAAGAGCACACGUCU [U7A U8G G9A U10G U11C C12A C13G]: 1.36.
As to GGGUCGGAUGACGAUAAUCGCGUGGAUAUGGCACGCAAGUUUCUACCGGGCACCGUAAAUGUCCGACUGGAGCCGUUCGGGCGGCUAUAAACAGACCUCAGGCCCGAAGCGUGGCGGCACCUGCCGCCGGUGGUAAAAAAGAUCGGAAGAGCACACGUCU [U7G U8A G9U U10G U11A C13G], the “aptazyme ON/OFF ratio” value was 1.06.
The same measure for GGGUCGCCAGAGUAUAAUCGCGUGGAUAUGGCACGCAAGUUUCUACCGGGCACCGUAAAUGUCCGACUGGAGCCGUUCGGGCGGCUAUAAACAGACCUCAGGCCCGAAGCGUGGCGGCACCUGCCGCCGGUGGUAAAAAAGAUCGGAAGAGCACACGUCU [U7C U8C G9A U10G U11A C12G C13U]: 1.11.
The same measure for GGGUCGACUUAUGAUAAUCGCGUGGAUAUGGCACGCAAGUUUCUACCGGGCACCGUAAAUGUCCGACUGGAGCCGUUCGGGCGGCUAUAAACAGACCUCAGGCCCGAAGCGUGGCGGCACCUGCCGCCGGUGGUAAAAAAGAUCGGAAGAGCACACGUCU [U7A U8C G9U U11A C12U C13G]: 1.22.
Consider GGGUCGGACUAUGAUAAUCGCGUGGAUAUGGCACGCAAGUUUCUACCGGGCACCGUAAAUGUCCGACUGGAGCCGUUCGGGCGGCUAUAAACAGACCUCAGGCCCGAAGCGUGGCGGCACCUGCCGCCGGUGGUAAAAAAGAUCGGAAGAGCACACGUCU [U7G U8A G9C U11A C12U C13G], for which the “aptazyme ON/OFF ratio” value was determined as 1.03.
Under GGGUCGCGAGAAGAUAAUCGCGUGGAUAUGGCACGCAAGUUUCUACCGGGCACCGUAAAUGUCCGACUGGAGCCGUUCGGGCGGCUAUAAACAGACCUCAGGCCCGAAGCGUGGCGGCACCUGCCGCCGGUGGUAAAAAAGAUCGGAAGAGCACACGUCU [U7C U8G G9A U10G U11A C12A C13G] stands 1.3.
GGGUCGGCCCUUUAUAAUCGCGUGGAUAUGGCACGCAAGUUUCUACCGGGCACCGUAAAUGUCCGACUGGAGCCGUUCGGGCGGCUAUAAACAGACCUCAGGCCCGAAGCGUGGCGGCACCUGCCGCCGGUGGUAAAAAAGAUCGGAAGAGCACACGUCU [U7G U8C G9C U10C C12U C13U]: the “aptazyme ON/OFF ratio” value was determined as 1.04.
Under GGGUCGUGAUGCCAUAAUCGCGUGGAUAUGGCACGCAAGUUUCUACCGGGCACCGUAAAUGUCCGACUGGAGCCGUUCGGGCGGCUAUAAACAGACCUCAGGCCCGAAGCGUGGCGGCACCUGCCGCCGGUGGUAAAAAAGAUCGGAAGAGCACACGUCU [U8G G9A U11G] stands 1.18; under GGGUCGAGCCCUUAUAAUCGCGUGGAUAUGGCACGCAAGUUUCUACCGGGCACCGUAAAUGUCCGACUGGAGCCGUUCGGGCGGCUAUAAACAGACCUCAGGCCCGAAGCGUGGCGGCACCUGCCGCCGGUGGUAAAAAAGAUCGGAAGAGCACACGUCU [U7A U8G G9C U10C U11C C12U C13U], 1.01.
Turning to GGGUCGGCUCCAUAUAAUCGCGUGGAUAUGGCACGCAAGUUUCUACCGGGCACCGUAAAUGUCCGACUGGAGCCGUUCGGGCGGCUAUAAACAGACCUCAGGCCCGAAGCGUGGCGGCACCUGCCGCCGGUGGUAAAAAAGAUCGGAAGAGCACACGUCU [U7G U8C G9U U10C U11C C12A C13U], the “aptazyme ON/OFF ratio” value stood at 1.54.
In the case of GGGUCGACGGCGGAUAAUCGCGUGGAUAUGGCACGCAAGUUUCUACCGGGCACCGUAAAUGUCCGACUGGAGCCGUUCGGGCGGCUAUAAACAGACCUCAGGCCCGAAGCGUGGCGGCACCUGCCGCCGGUGGUAAAAAAGAUCGGAAGAGCACACGUCU [U7A U8C U10G U11C C12G C13G], the “aptazyme ON/OFF ratio” value worked out at 1.17.
The same measure for GGGUCGUCGCUGGAUAAUCGCGUGGAUAUGGCACGCAAGUUUCUACCGGGCACCGUAAAUGUCCGACUGGAGCCGUUCGGGCGGCUAUAAACAGACCUCAGGCCCGAAGCGUGGCGGCACCUGCCGCCGGUGGUAAAAAAGAUCGGAAGAGCACACGUCU [U8C U10C C12G C13G]: 1.29; for GGGUCGGUGACUCAUAAUCGCGUGGAUAUGGCACGCAAGUUUCUACCGGGCACCGUAAAUGUCCGACUGGAGCCGUUCGGGCGGCUAUAAACAGACCUCAGGCCCGAAGCGUGGCGGCACCUGCCGCCGGUGGUAAAAAAGAUCGGAAGAGCACACGUCU [U7G U10A U11C C12U]: 1.05.
Under GGGUCGAGCUGCGAUAAUCGCGUGGAUAUGGCACGCAAGUUUCUACCGGGCACCGUAAAUGUCCGACUGGAGCCGUUCGGGCGGCUAUAAACAGACCUCAGGCCCGAAGCGUGGCGGCACCUGCCGCCGGUGGUAAAAAAGAUCGGAAGAGCACACGUCU [U7A U8G G9C U11G C13G] stands 1.22.
The same measure for GGGUCGAAACCGGAUAAUCGCGUGGAUAUGGCACGCAAGUUUCUACCGGGCACCGUAAAUGUCCGACUGGAGCCGUUCGGGCGGCUAUAAACAGACCUCAGGCCCGAAGCGUGGCGGCACCUGCCGCCGGUGGUAAAAAAGAUCGGAAGAGCACACGUCU [U7A U8A G9A U10C U11C C12G C13G]: 1.07.
For the variant GGGUCGUCCAAAUAUAAUCGCGUGGAUAUGGCACGCAAGUUUCUACCGGGCACCGUAAAUGUCCGACUGGAGCCGUUCGGGCGGCUAUAAACAGACCUCAGGCCCGAAGCGUGGCGGCACCUGCCGCCGGUGGUAAAAAAGAUCGGAAGAGCACACGUCU [U8C G9C U10A U11A C12A C13U], the “aptazyme ON/OFF ratio” value turned out to be 1.08.
The same measure for GGGUCGACCAGCCAUAAUCGCGUGGAUAUGGCACGCAAGUUUCUACCGGGCACCGUAAAUGUCCGACUGGAGCCGUUCGGGCGGCUAUAAACAGACCUCAGGCCCGAAGCGUGGCGGCACCUGCCGCCGGUGGUAAAAAAGAUCGGAAGAGCACACGUCU [U7A U8C G9C U10A U11G]: 1.11.
The same measure for GGGUCGCCGGAUGAUAAUCGCGUGGAUAUGGCACGCAAGUUUCUACCGGGCACCGUAAAUGUCCGACUGGAGCCGUUCGGGCGGCUAUAAACAGACCUCAGGCCCGAAGCGUGGCGGCACCUGCCGCCGGUGGUAAAAAAGAUCGGAAGAGCACACGUCU [U7C U8C U10G U11A C12U C13G]: 1.1.
